Reference: paper PMC8795592, “Human Dermcidin Protects Mice Against Hepatic Ischemia-Reperfusion–Induced Local and Remote Inflammatory Injury” (Frontiers in Immunology, 2021)
Positions count from the first letter of the chain named. Numbers in names are those of the source.

B1: recombinant human dermcidin (full-length DCD precursor, residue 20-110) with N-terminal 6×His tag (natural protein, UniProt P81605 20-110, looked up)
chain: YDPEAASAPGSGNPCHEASAAQKENAGEDPGLARQAPKPRKQRSSLLEKGLDGAKKAVGGLGKLGKDAVEDLESVGKGAVHDVKDVLDSVL
notes: dermcidin (DCD), human, residues 20-110, without the N-terminal 19-aa signal leader peptide (residue 1-19); one sentence of the methods says residue 20-100; Without a reducing agent the preparation is a mixture of monomers and disulfide-linked dimers (through Cys34); results and legends print 20-110; also called recombinant DCD; source: E. coli BL21 (DE3) pLysS, purified; Triton X-114 extraction …
B2: DCD-C34S analog (recombinant human dermcidin residue 20-110 with a Cys to Ser substitution at residue 34, N-terminal 6×His tag) (natural protein, UniProt P81605 20-110, looked up)
chain: B1 chain with C15S
notes: dermcidin (DCD), human, residues 20-110 without the signal leader peptide, with C34S; Made by similar procedures as m1; source: E. coli BL21 (DE3) pLysS, purified to homogeneity; Triton X-114 extraction to remove endotoxins; not shown: His6, N-terminal, kept

Key:
[1] = molecular target: T1, recombinant EGFR corresponding to the extracellular domain (residue 25-645) (human, UniProt P00533 25-645); experiment: SPR; Biacore T200; DCD immobilised on CM5 chip; EGFR extracellular domain applied as analyte at 5 concentrations; KD by Biacore evaluation software 2.0 supposing a 1:1 binding ratio; conditions: both partners purified
T1 construct: epidermal growth factor receptor (EGFR), human, extracellular domain, residues 25-645; also called extracellular domain of human EGFR; epidermal growth factor receptor; source: bought: RayBiotech

[2] = molecular target: the molecule itself; experiment: SDS-PAGE with and without DTT; purified recombinant His-tagged protein run on SDS-PAGE in the presence or absence of the reducing agent dithiothreitol; shows disulfide-linked (covalent) dimers only
[3] = molecular target: T1, recombinant EGFR corresponding to the …; experiment: SPR; Nicoya Lifesciences OpenSPR (gold nanoparticles); DCD or DCD-C34S with 6×His tag immobilised on NTA sensor chip; EGFR extracellular domain applied as analyte at three concentrations; KD by Trace Drawer Kinetic Data Analysis v.1.6.1; conditions: both partners purified

Binder	Kd [1] [µM]	stoichiometry N [2]	Kd [3] [µM]
B1	0.0588	2	0.0581
B2			0.0579
